{"source": "patent US20080160015A1", "key": {"[1]": {"target": "human monoclonal anti-C1 domain of Factor VIII inhibitory antibody RHD5", "experiment": "SPR (BIAcore), RHD5 immobilized on CM5, 18B6 infused"}, "[2]": {"target": "human monoclonal anti-C1 domain of Factor VIII inhibitory antibody RHD5", "experiment": "competition ELISA: 18B6 at 3.12 µg/ml with RHD5 2 µg/ml, RHD5 binding to coated recFVIII detected"}, "[3]": {"target": "human monoclonal anti-C1 domain of Factor VIII inhibitory antibody RHD5", "experiment": "competition ELISA: 18B6 at 1.56 µg/ml with RHD5 2 µg/ml, RHD5 binding to coated recFVIII detected"}, "[4]": {"target": "human monoclonal anti-C1 domain of Factor VIII inhibitory antibody RHD5", "experiment": "cell-based or functional assay"}, "[5]": {"target": "human monoclonal anti-C1 domain of Factor VIII inhibitory antibody RHD5", "experiment": "competition ELISA: 18B6 at 0.39 µg/ml with RHD5 2 µg/ml, RHD5 binding to coated recFVIII detected"}, "[6]": {"target": "human monoclonal anti-C1 domain of Factor VIII inhibitory antibody RHD5", "experiment": "competition ELISA: 18B6 at 0.098 µg/ml with RHD5 2 µg/ml, RHD5 binding to coated recFVIII detected"}, "[7]": {"target": "human monoclonal anti-C1 domain of Factor VIII inhibitory antibody RHD5", "experiment": "competition ELISA: 18B6 at 25 µg/ml with RHD5 2 µg/ml, RHD5 binding to coated recFVIII detected"}, "[8]": {"target": "human monoclonal anti-C1 domain of Factor VIII inhibitory antibody RHD5", "experiment": "competition ELISA: 18B6 at 0.78 µg/ml with RHD5 2 µg/ml, RHD5 binding to coated recFVIII detected"}, "[9]": {"target": "human monoclonal anti-C1 domain of Factor VIII inhibitory antibody RHD5", "experiment": "competition ELISA: 18B6 at 50 µg/ml with RHD5 2 µg/ml, RHD5 binding to coated recFVIII detected"}, "[10]": {"target": "human monoclonal anti-C1 domain of Factor VIII inhibitory antibody RHD5", "experiment": "competition ELISA: 18B6 at 12.5 µg/ml with RHD5 2 µg/ml, RHD5 binding to coated recFVIII detected"}, "[11]": {"target": "human monoclonal anti-C1 domain of Factor VIII inhibitory antibody RHD5", "experiment": "competition ELISA: 18B6 at 0.195 µg/ml with RHD5 2 µg/ml, RHD5 binding to coated recFVIII detected"}, "[12]": {"target": "human monoclonal anti-C1 domain of Factor VIII inhibitory antibody RHD5", "experiment": "competition ELISA: supernatant preincubated with RHD5 (0.6 µg/ml), RHD5 binding to coated recFVIII detected"}, "[13]": {"target": "human monoclonal anti-C1 domain of Factor VIII inhibitory antibody RHD5", "experiment": "competition ELISA: 18B6 at 6.25 µg/ml with RHD5 2 µg/ml, RHD5 binding to coated recFVIII detected"}, "[14]": {"target": "human monoclonal anti-C1 domain of Factor VIII inhibitory antibody RHD5", "experiment": "competition ELISA: 18B6 with RHD5 2 µg/ml, RHD5 binding to coated recFVIII detected"}}}
{"binder": "monoclonal anti-idiotypic antibody 18B6 (antibody, V domains shown, mouse IgG1 kappa constant regions) VH: QVQLQQSGAELAKPGASVKMSCKASGYTFTTYWMHWIKQRPGQDLEWIGYINPTSGYTEYNQNFKDKATLTADKSSSTAYMQLNSLTSEDSAVYFCARSGAYYRYDDAMDSWGQGTSVTVSS VL: QIVLSQSPAILSASPGEKVTMTCRASSSVSYMNWYQQKPGSSPKPWIYATSNLASGVPARFSGSGSGTSYSLTISRVEAEDAATYYCQQWSSNPPMLTFGAGTKLELK", "values": [{"measurement": "Kd", "setting": "[1]", "result": 3.4, "unit": "nM"}, {"measurement": "koff", "setting": "[1]", "result": "1.45e-05", "unit": "s⁻¹"}, {"measurement": "kon", "setting": "[1]", "result": 4260, "unit": "M⁻¹ s⁻¹"}, {"measurement": "Inhibition of binding (%)", "setting": "[2]", "result": 94.1, "unit": "%"}, {"measurement": "Inhibition of binding (%)", "setting": "[3]", "result": 90.3, "unit": "%"}, {"measurement": "Neutralisation (%) of RHD5 (0.4 µg/ml) inhibitory activity, chromogenic FVIII assay, anti-Id at 0.0002 µg/ml", "setting": "[4]", "result": 0, "unit": "%"}, {"measurement": "Neutralisation (%) of RHD5 (0.4 µg/ml) inhibitory activity, chromogenic FVIII assay, anti-Id at 0.0006 µg/ml", "setting": "[4]", "result": 6.7, "unit": "%"}, {"measurement": "Neutralisation (%) of RHD5 (0.4 µg/ml) inhibitory activity, chromogenic FVIII assay, anti-Id at 0.00183 µg/ml", "setting": "[4]", "result": 8.9, "unit": "%"}, {"measurement": "Neutralisation (%) of RHD5 (0.4 µg/ml) inhibitory activity, chromogenic FVIII assay, anti-Id at 0.0055 µg/ml", "setting": "[4]", "result": 6.7, "unit": "%"}, {"measurement": "Neutralisation (%) of RHD5 (0.4 µg/ml) inhibitory activity, chromogenic FVIII assay, anti-Id at 0.0165 µg/ml", "setting": "[4]", "result": 8.8, "unit": "%"}, {"measurement": "Neutralisation (%) of RHD5 (0.4 µg/ml) inhibitory activity, chromogenic FVIII assay, anti-Id at 0.049 µg/ml", "setting": "[4]", "result": 11, "unit": "%"}, {"measurement": "Neutralisation (%) of RHD5 (0.4 µg/ml) inhibitory activity, chromogenic FVIII assay, anti-Id at 0.148 µg/ml", "setting": "[4]", "result": 27.4, "unit": "%"}, {"measurement": "Neutralisation (%) of RHD5 (0.4 µg/ml) inhibitory activity, chromogenic FVIII assay, anti-Id at 0.44 µg/ml", "setting": "[4]", "result": 54.3, "unit": "%"}, {"measurement": "Neutralisation (%) of RHD5 (0.4 µg/ml) inhibitory activity, chromogenic FVIII assay, anti-Id at 1.33 µg/ml", "setting": "[4]", "result": 81.2, "unit": "%"}, {"measurement": "Neutralisation (%) of RHD5 (0.4 µg/ml) inhibitory activity, chromogenic FVIII assay, anti-Id at 4 µg/ml", "setting": "[4]", "result": 89.5, "unit": "%"}, {"measurement": "Neutralization: functional test (chromogenic FVIII assay, RHD5 1 µg/ml with supernatant, FVIII Kogenate 0.5 U/ml)", "setting": "[4]", "result": 100, "unit": "%"}, {"measurement": "neutralisation of RHD5 inhibitory activity at an equimolar RHD5/18B6 ratio", "setting": "[4]", "result": 50, "unit": "%"}, {"measurement": "Inhibition of binding (%)", "setting": "[5]", "result": 9.2, "unit": "%"}, {"measurement": "Inhibition of binding (%)", "setting": "[6]", "result": 0, "unit": "%"}, {"measurement": "Inhibition of binding (%)", "setting": "[7]", "result": 97.2, "unit": "%"}, {"measurement": "Inhibition of binding (%)", "setting": "[8]", "result": 50.3, "unit": "%"}, {"measurement": "Inhibition of binding (%)", "setting": "[9]", "result": 96.1, "unit": "%"}, {"measurement": "Inhibition of binding (%)", "setting": "[10]", "result": 96.9, "unit": "%"}, {"measurement": "Inhibition of binding (%)", "setting": "[11]", "result": 0, "unit": "%"}, {"measurement": "Inhibition: Elisa (%)", "setting": "[12]", "result": 93.1, "unit": "%"}, {"measurement": "Inhibition of binding (%)", "setting": "[13]", "result": 96.7, "unit": "%"}, {"measurement": "inhibition of binding at an equimolar ratio (%)", "setting": "[14]", "result": 92, "unit": "%"}, {"measurement": "molar ratio RHD5/18B6 at 50% inhibition (molar ratio RHD5/18B6)", "setting": "[14]", "result": 2.5}]}
